Assay results published in article PMC2811071.

Biological target: T1, raver1 RRM1 (human (Homo sapiens), UniProt Q8IY67 59-130)
T1 sequence: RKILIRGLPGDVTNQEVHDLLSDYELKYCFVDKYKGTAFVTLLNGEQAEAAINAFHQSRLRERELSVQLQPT
Assay: ITC

UCAUGCAGUCUG (ssRNA) [vinculin mRNA 12-mer]
binding result: binds
